Assays:
[1] = target: PknB1-279 (His-tagged catalytic kinase core of the Ser/Thr protein kinase PknB, Rv0014c, aa 1-279) (Mycobacterium tuberculosis) (UniProt P9WI81); assay: cell-based or functional assay
[2] = target: T1, PknB1-279 (His-tagged catalytic kinase core of the Ser/Thr protein kinase PknB, Rv0014c, aa 1-279), P9WI81
T1 chain: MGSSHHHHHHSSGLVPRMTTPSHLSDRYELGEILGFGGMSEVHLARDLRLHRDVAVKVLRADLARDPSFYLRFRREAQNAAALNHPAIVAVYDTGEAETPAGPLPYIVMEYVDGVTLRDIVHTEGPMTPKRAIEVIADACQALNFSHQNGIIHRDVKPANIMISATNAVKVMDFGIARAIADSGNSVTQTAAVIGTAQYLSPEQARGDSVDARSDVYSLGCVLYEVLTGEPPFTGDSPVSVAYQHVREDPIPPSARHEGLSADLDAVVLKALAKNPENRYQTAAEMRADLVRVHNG

| Molecule | MALDI-TOF mass of PknB1-279 after treatment with PstP or alkaline phosphatase: phosphate groups removed (phosphate groups) [1] | dephosphorylation of [33P]-autophosphorylated PknB1-279 by PstP, SDS-PAGE and autoradiography, with or without MnCl2 [2] | kinase activity of PknB on MBP (thio-γATP) after preincubation with PstP [2] |
| --- | --- | --- | --- |
| PstP1-240 (His-tagged catalytic domain of the Ser/Thr protein phosphatase PstP, Rv0018c, aa 1-240) (from UniProt P9WHW5 1-240) (enzyme) | 3 |  |  |
| PstP1-240 (His-tagged catalytic domain of the Ser/Thr protein phosphatase PstP, Rv0018c, aa 1-240) (protein) MARVTLVLRYAARSDRGLVRANNEDSVYAGARLLALADGMGGHAAGEVASQLVIAALAHLDDDEPGGDLLAKLDAAVRAGNSAIAAQVEMEPDLEGMGTTLTAILFAGNRLGLVHIGDSRGYLLRDGELTQITKDDTFVQTLVDEGRITPEEAHSHPQRSLIMRALTGHEVEPTLTMREARAGDRYLLCSDGLSDPVSDETILEALQIPEVAESAHRLIELALRGGGPDNVTVVVADVVD |  | PstP is capable of dephosphorylating PknB | prior dephosphorylation of PknB by PstP inhibits kinase activity on MBP |

Source: patent US20060019324A1
